The record followed here is patent publication US20100047245A1 (AbbVie / Abbott, published 2010).

Sequences and labels used below:
B1: 8E1-Chim (antibody, human IgG1, V domains shown)
VH: EVKLVESGGGLVQPGGSRKLSCAASGFTFSDYGMVWVRQAPGKGLEWVASISSGSSNIYYADTVKGRFTISRDDPNNTLFLQMRSLRSEDTAMYYCARNPYWGQGTTLTVSS
VL: DIVMTQSQKFMSTSVGDRVSVTCKASQNVGTNVAWYQQKPGQSPKGLIYSASHRYSGVPDRFAGSGSGTDFTLTISNVQSEDLAEYFCQQYNSYPLTFGGGTKLELKR
B2: 1D4-Chim (antibody, human IgG1, V domains shown)
VH: QVTLKESGPGILQPSQTLSLTCSFSGFSLRKSVMGVSWIRQPSGKGLEWLAHIYWDDDKYYNPSLKSRLTISKDPSRNQVFLKITSVDTADAATYYCTRRGIRSAMDYWGQGTSVTVSS
VL: SVVMTQTPKFLLVSAGDRVTITCKASQSVSNDVAWYQQKPGQSPKLLIYYASNRYTGVPDRFTGSGYGTDFTFIISTVRAEDLAVYFCQQDYNSPWTFGGGTKLEIKR
B3: 1A6-Chim (antibody, human IgG1, V domains shown)
VH: QVTLKESGPGILKPSQTLSLTCSFSGFSLSTSGMGVSWIRQPSGKGLEWLAHIWWDGDNYYNPSLKSQLTISKDTSRNQVFLRIATVDTADTATYYCARRTRVNYAMDYWGQGTSVTVSS
VL: B2 VL with Y36F, I74T, R79Q
B4: 3G7-Chim (antibody, human IgG1, V domains shown)
VH: QVQLQQSGAELMKPGASVKISCKATGYTFNDYWIEWVKQRPGHGLEWIGGFSHGSGSTNYNEKFKGKATFTADSSSNTAYMQLSSLTSEDSAVYYCARRRFRGMDYWGQGTSVTVSS
VL: B2 VL with V2I, I74T, S76T, R79Q, N93S, T97S

Positions count from the first letter of the chain named.

The target of this assay is recombinant purified cyno IL-12 p70 (cynomolgus monkey). Put plainly: cell-based or functional assay.
recombinant purified cyno IL-12 p70 (cynomolgus monkey), sequence (P48095 23-328, chain 1 of 2): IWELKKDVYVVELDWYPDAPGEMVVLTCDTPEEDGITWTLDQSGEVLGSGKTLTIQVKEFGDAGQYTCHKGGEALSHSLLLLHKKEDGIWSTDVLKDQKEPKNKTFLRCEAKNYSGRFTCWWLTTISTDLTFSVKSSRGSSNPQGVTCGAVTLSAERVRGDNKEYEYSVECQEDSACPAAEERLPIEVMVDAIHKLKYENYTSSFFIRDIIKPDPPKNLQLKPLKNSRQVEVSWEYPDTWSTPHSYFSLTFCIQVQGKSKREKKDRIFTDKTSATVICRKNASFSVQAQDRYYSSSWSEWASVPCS
recombinant purified cyno IL-12 p70 (cynomolgus monkey), sequence (P48091 23-219, chain 2 of 2, further chain): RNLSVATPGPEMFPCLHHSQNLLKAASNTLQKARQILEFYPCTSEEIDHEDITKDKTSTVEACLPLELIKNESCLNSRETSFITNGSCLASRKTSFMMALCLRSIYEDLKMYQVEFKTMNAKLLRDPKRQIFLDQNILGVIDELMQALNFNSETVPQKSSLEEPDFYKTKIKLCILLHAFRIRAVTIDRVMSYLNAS
With B1, the “Average IC50 (nM) Cyno IL-12; PHA blast IFN-gamma induction assay” value (“Average IC50” for short) was found to be 0.15 nM.

On to B2, for which the “Average IC50” value was determined as 0.07 nM.

As for B3, the “Average IC50” value was determined as 0.02 nM.

B4: the “Average IC50” value stood at 0.32 nM.
